Measurements as given in US20230279126A1 (published 2023).
Positions count from the first letter of the chain named.

T1: extracellular domain of mouse IL23R (mIL23R ECD) (mouse, UniProt Q8K4B4 24-374)
T1 construct: The immunogen was an ECD-human IgG1 hinge-Fc fusion
T1 sequence: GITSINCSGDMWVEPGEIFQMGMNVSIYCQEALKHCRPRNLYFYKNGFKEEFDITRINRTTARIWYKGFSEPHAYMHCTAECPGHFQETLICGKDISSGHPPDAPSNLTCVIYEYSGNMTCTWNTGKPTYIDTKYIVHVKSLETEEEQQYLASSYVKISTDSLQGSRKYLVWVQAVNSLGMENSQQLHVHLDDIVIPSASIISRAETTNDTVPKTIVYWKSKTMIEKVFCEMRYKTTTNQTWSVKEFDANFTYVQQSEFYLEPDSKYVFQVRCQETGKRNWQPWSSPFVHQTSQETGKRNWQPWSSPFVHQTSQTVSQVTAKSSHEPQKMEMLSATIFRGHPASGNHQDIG

B1: hIL12Rb1_VHH1 (VHH)
VHH: QVQLQESGGGSVQAGGSLRLSCVASGYGYCGYDMSWYRQAPGKEREFVALITSDRSISYEDSVKARFIISRDNAANTGYLDMTRLTPDDTAIYYCKTSAAARESSWCRSRYRVASWGQGTQVTVSS
notes: Phagemid clone with his-tag, periplasmic extract
B2: mIL23R VHH12 (VHH)
VHH: QVQLQESGGGSVQAGGSLRLSCAASGYTYSSCTMGWYRQAPGKERELVSMLISDGSTFYADSVKGRFTFSQENAKNTVYLQMNSLKPEDTAMYYCGCATLGSRTVWGQGTQVTVSS
notes: as for B1
B3: mIL23R VHH1 (VHH)
VHH: B2 VHH with N73Y
notes: as for B1
B4: mIL23R VHH8 (VHH)
VHH: B2 VHH with A23T, G26R, L51V, I52F, V105I
notes: as for B1
B5: mIL23R VHH10 (VHH)
VHH: B2 VHH with Y27D, E46D, I52M, S53G, V105I
notes: as for B1
B6: mIL23R VHH11 (VHH)
VHH: B2 VHH with N76S
notes: as for B1
B7: mIL23R VHH15 (VHH)
VHH: B2 VHH with L51V, I52F, V105I
notes: as for B1
B8: mIL23R VHH16 (VHH)
VHH: B2 VHH with Y27D, E46D, I52M, S53G, S84N, V105I
notes: as for B1
B9: mIL23R VHH25 (VHH)
VHH: B2 VHH with Y94F
notes: as for B1
B10: mIL23R VHH27 (VHH)
VHH: B2 VHH with F69S
notes: as for B1
B11: mIL23R VHH36 (VHH)
VHH: B2 VHH with Y27D, E46D, L51V, I52F, V105I
notes: as for B1
B12: mIL23R VHH29 (VHH)
VHH: QVQLQESGGGLVQPGGSLRLSCAASGFTFSTSAMTWVRQAPGKGLDWVSGIDSGGTTVYADSVKGRFTISKDNAKNTLYLQMNSLKTEDTAVYYCATGLPWGNTWRTRGQGTQVTVSS
notes: as for B1
B13: mIL23R VHH7 (VHH)
VHH: B12 VHH with T31R, K71R, N73S, T97I
notes: as for B1
B14: mIL23R VHH14 (VHH)
VHH: B12 VHH with S30R, K71R, N73S, T97M
notes: as for B1
B15: mIL23R VHH20 (VHH)
VHH: B12 VHH with T31S, F67A, S70L
notes: as for B1
B16: mIL23R VHH21 (VHH)
VHH: B12 VHH with A24T, T31S, R108T
notes: as for B1
B17: mIL23R VHH32 (VHH)
VHH: B12 VHH with Q13R, T31R, K71R, N73S, T97I
notes: as for B1
B18: mIL23R VHH33 (VHH)
VHH: B12 VHH with A23T, A24T, T31S, R108T
notes: as for B1
B19: mIL23R VHH35 (VHH)
VHH: B12 VHH with S21A, A23S, T31S, F67A, S70L
notes: as for B1
B20: mIL23R VHH37 (VHH)
VHH: B12 VHH with A24T, T31S, S32G, R108T
notes: as for B1
B21: mIL23R VHH38 (VHH)
VHH: B12 VHH with T104I
notes: as for B1
B22: mIL23R VHH39 (VHH)
VHH: B12 VHH with T31R, K71R, N73S, S84G, T97I
notes: as for B1
B23: mIL23R VHH41 (VHH)
VHH: B12 VHH with S21T
notes: as for B1
B24: mIL23R VHH18 (VHH)
VHH: QVQLQESGGGLVQPGGSLRLSCAASGFTFRLTAMRWVRQAPGKGLEWVSGIDSRGSTIYADSVKGRFTISKDNAKNTLYLQLNSLKTEDTAMYYCAQGVYGDTYSGSQGTQVTVSS
notes: as for B1
B25: mIL23R VHH2 (VHH)
VHH: B24 VHH with L11S, P14A, R19T, A23T, S25P, T32A
notes: as for B1
B26: mIL23R VHH9 (VHH)
VHH: B24 VHH with A24T, L45V, R54A, L82M
notes: as for B1
B27: mIL23R VHH13 (VHH)
VHH: B24 VHH with A24T, T32A
notes: as for B1
B28: mIL23R VHH17 (VHH)
VHH: B24 VHH with L11S, P14A
notes: as for B1
B29: mIL23R VHH19 (VHH)
VHH: B24 VHH with T32S
notes: as for B1
B30: mIL23R VHH23 (VHH)
VHH: B24 VHH with T28N, T32Y, L45V, R54G
notes: as for B1
B31: mIL23R VHH28 (VHH)
VHH: B24 VHH with K71R, T90A
notes: as for B1
B32: mIL23R VHH30 (VHH)
VHH: B24 VHH with Q108L
notes: as for B1
B33: mIL23R VHH31 (VHH)
VHH: B24 VHH with K71R
notes: as for B1
B34: mIL23R VHH34 (VHH)
VHH: B24 VHH with Y104H
notes: as for B1
B35: mIL23R VHH40 (VHH)
VHH: B24 VHH with T87S
notes: as for B1
B36: mIL23R VHH42 (VHH)
VHH: B24 VHH with R30S, L31N, T32Y
notes: as for B1
B37: mIL23R VHH44 (VHH)
VHH: B24 VHH with T32S, L45F
notes: as for B1
B38: mIL23R VHH45 (VHH)
VHH: B24 VHH with T32S, K64E
notes: as for B1
B39: mIL23R VHH46 (VHH)
VHH: B24 VHH with T32S, N73D
notes: as for B1
B40: mIL23R VHH26 (VHH)
VHH: QVQLQESGGGSVQAGGSLRLSCAASGYTFCMAWFRQAPGKEREGVARFYTRDGYTYYSDSVKGRFTISQNNAKNTLYLQMNSLKSEDTAMYYCAADLTRCSSNKNDFRYWGQGTQVTVSS
notes: as for B1
B41: mIL23R VHH5 (VHH)
VHH: B40 VHH with T98A
notes: as for B1
B42: mIL23R VHH22 (VHH)
VHH: B40 VHH with G53S
notes: as for B1
B43: mIL23R VHH24 (VHH)
VHH: B40 VHH with A24V, D59G
notes: as for B1
B44: mIL23R VHH43 (VHH)
VHH: B40 VHH with N70D
notes: as for B1
B45: mIL23R VHH3 (VHH)
VHH: QVQLQESGGGSVQAGGSLRLSCTASVNTYCEYNMSWYRQAPGKEREFVSGVDSDGSTRYSESVKGRFTISQDNAKNTMYLQMNGLKPEDTAMYYCKTYVCTFCSGNSCYYEYKYYYEGQGTQVTVSS
notes: as for B1
B46: mIL23R VHH4 (VHH)
VHH: QVQLQESGGGSVQAGGSLRLSCAASGYTYSNNCMGWFRQAPGKDRERIANIYTGGGRTTYADSVKGRFTISQDSAKSTVYLQMNSLKPEDTAMYYCAAGSCGSARSEYSYWGQGTQVTVSS
notes: as for B1
B47: mIL23R VHH6 (VHH)
VHH: QVQLQESGGGSVQAGGSLRLSCAASGYTSGNYWMGWFRQAPGKEREGVATLWTGGASTFYGDSVKGRFTISRDNFKNTLYLQMNSLKVEDTAMYYCAADPALRLGANILRPAEYKYWGQGTQVTVSS
notes: as for B1

Tests used:
[1] = biological target: T2, extracellular domain of human IL12RB1 (hIL12Rb1 ECD) (human, UniProt P42701 24-545); assay: periplasmic extract ELISA (PE-ELISA) of phage clones, colorimetric
T2 construct: The immunogen was a fusion of the ECD with the human IgG1 hinge and Fc; also called IL12Rβ1; CD212
How it was run: (§1)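 Camels were immunized in turn with fusion proteins joining the human or mouse receptor extracellular domain to a human IgG1 hinge and Fc, and their VHH domains were recovered. RNA from the blood was transcribed, and a VHH fragment of approximately 400 bp was cloned into a phagemid in E. coli, in frame with a his-tag. The resulting phage library was biopanned over multiple rounds against either the human or the mouse extracellular domain. Selective binding of single clones was read colorimetrically by periplasmic extract ELISA in 96-well plates.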

[2] = biological target: T1, extracellular domain of mouse IL23R …; assay: as above
How it was run: as §1

| Binder | binding result [1] | binding result [2] |
| --- | --- | --- |
| B1 | binds |  |
| B2 |  | binds |
| B3 |  | binds |
| B4 |  | binds |
| B5 |  | binds |
| B6 |  | binds |
| B7 |  | binds |
| B8 |  | binds |
| B9 |  | binds |
| B10 |  | binds |
| B11 |  | binds |
| B12 |  | binds |
| B13 |  | binds |
| B14 |  | binds |
| B15 |  | binds |
| B16 |  | binds |
| B17 |  | binds |
| B18 |  | binds |
| B19 |  | binds |
| B20 |  | binds |
| B21 |  | binds |
| B22 |  | binds |
| B23 |  | binds |
| B24 |  | binds |

| Binder | binding result [1] | binding result [2] |
| --- | --- | --- |
| B25 |  | binds |
| B26 |  | binds |
| B27 |  | binds |
| B28 |  | binds |
| B29 |  | binds |
| B30 |  | binds |
| B31 |  | binds |
| B32 |  | binds |
| B33 |  | binds |
| B34 |  | binds |
| B35 |  | binds |
| B36 |  | binds |
| B37 |  | binds |
| B38 |  | binds |
| B39 |  | binds |
| B40 |  | binds |
| B41 |  | binds |
| B42 |  | binds |
| B43 |  | binds |
| B44 |  | binds |
| B45 |  | binds |
| B46 |  | binds |
| B47 |  | binds |
